Here are results for 91 sequences from the supplement of paper PMC9112550, “Optimization of the antimicrobial peptide Bac7 by deep mutational scanning” (BMC Biology, 2022).

For this data set, the system named is Escherichia coli TOP10. Kind of data set: shrunken log2 fold change of peptide-encoding DNA abundance (4.5 h post-induction vs induction); higher = less antimicrobial activity (less host growth inhibition). The settings on record: time post-induction: 4.5 h; library: site-saturation at positions 5, 18, 19, 20.
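Also: peptides expressed intracellularly from a pBAD plasmid library in pooled LB shake-flask culture, induced with 0.3% L-arabinose, DNA abundance read by NGS, three biological replicates, DESeq2 with apeglm shrinkage.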

Take RRIRLRPPRLPRPRPRPMCAPRP: the “shrunken log2 fold change” value turned out to be 0.0321.
The same measure for RRIRNRPPRLPRPRPRPRYCPRP: -0.0932; for RRIRSRPPRLPRPRPRPIDKPRP: -0.156; for RRIRCRPPRLPRPRPRPGHAPRP: 0.297.
In the case of RRIRDRPPRLPRPRPRPERYPRP, the “shrunken log2 fold change” value stood at 0.00592.
Consider RRIRDRPPRLPRPRPRPLICPRP, for which the “shrunken log2 fold change” value was 0.347.
The same measure for RRIRVRPPRLPRPRPRPDAHPRP: 0.21; for RRIRQRPPRLPRPRPRPNDKPRP: -0.335.
The same measure for RRIRMRPPRLPRPRPRPTELPRP: 0.172.
The same measure for RRIRLRPPRLPRPRPRPCSIPRP: -0.678.
On to RRIRTRPPRLPRPRPRPGSVPRP, for which the “shrunken log2 fold change” value is -0.179.
The same measure for RRIRNRPPRLPRPRPRPRECPRP: 0.0263.
With RRIRQRPPRLPRPRPRPQPHPRP, the “shrunken log2 fold change” value was found to be 0.158.
As for RRIRQRPPRLPRPRPRPQQIPRP, the “shrunken log2 fold change” value was -0.0822.
The same measure for RRIRDRPPRLPRPRPRPDDWPRP: 1.08.
The same measure for RRIRSRPPRLPRPRPRPRRRPRP: 0.312; for RRIRDRPPRLPRPRPRPMVLPRP: 0.359.
The same measure for RRIRLRPPRLPRPRPRPNKRPRP: -0.121.
As to RRIRVRPPRLPRPRPRPFQQPRP, the “shrunken log2 fold change” value is -0.014.
RRIRNRPPRLPRPRPRPDQSPRP: the “shrunken log2 fold change” value worked out at 0.00307.
Regarding RRIRRRPPRLPRPRPRPKFAPRP, the “shrunken log2 fold change” value was found to be 0.283.
The same measure for RRIRMRPPRLPRPRPRPGYGPRP: 0.148; for RRIRQRPPRLPRPRPRPDANPRP: 0.0607.
The same measure for RRIRGRPPRLPRPRPRPGRPPRP: 0.737.
RRIRTRPPRLPRPRPRPGKLPRP: the “shrunken log2 fold change” value is -0.394.
With RRIRRRPPRLPRPRPRPWCAPRP, the “shrunken log2 fold change” value came to 0.419.
The same measure for RRIRARPPRLPRPRPRPIPAPRP: 0.333; for RRIRPRPPRLPRPRPRPLIKPRP: -0.268.
With RRIRTRPPRLPRPRPRPPFFPRP, the “shrunken log2 fold change” value is 0.253.
The same measure for RRIRGRPPRLPRPRPRPSYCPRP: 0.237; for RRIRMRPPRLPRPRPRPRDHPRP: 0.324.
The same measure for RRIRWRPPRLPRPRPRPTYRPRP: 0.146.
For the sequence RRIRTRPPRLPRPRPRPFLRPRP, the “shrunken log2 fold change” value is -0.0935.
The same measure for RRIRNRPPRLPRPRPRPSSRPRP: -0.164; for RRIRDRPPRLPRPRPRPILWPRP: 0.00705; for RRIRSRPPRLPRPRPRPQKLPRP: 0.0126.
The same measure for RRIRARPPRLPRPRPRPEREPRP: 1.05.
The same measure for RRIRSRPPRLPRPRPRPPPCPRP: 0.408; for RRIRGRPPRLPRPRPRPEDRPRP: 0.23.
For RRIRPRPPRLPRPRPRPMCYPRP, the “shrunken log2 fold change” value was -0.221.
The same measure for RRIRVRPPRLPRPRPRPTMHPRP: -0.103; for RRIRGRPPRLPRPRPRPAFSPRP: 0.0169; for RRIRGRPPRLPRPRPRPPQEPRP: 0.352.
The same measure for RRIRRRPPRLPRPRPRPHVEPRP: -0.162; for RRIRARPPRLPRPRPRPYSQPRP: -0.135.
The same measure for RRIRSRPPRLPRPRPRPMPNPRP: -0.0112; for RRIRARPPRLPRPRPRPFYHPRP: -0.462; for RRIRHRPPRLPRPRPRPNYTPRP: -0.529.
Take RRIRSRPPRLPRPRPRPHMRPRP: the “shrunken log2 fold change” value was -0.0431.
The same measure for RRIRPRPPRLPRPRPRPQITPRP: -0.314; for RRIRIRPPRLPRPRPRPSRSPRP: -0.605; for RRIRDRPPRLPRPRPRPSNTPRP: -0.75.
In the case of RRIRHRPPRLPRPRPRPEIPPRP, the “shrunken log2 fold change” value was -0.111.
The same measure for RRIRFRPPRLPRPRPRPSALPRP: 0.0201.
On to RRIRVRPPRLPRPRPRPVWWPRP, for which the “shrunken log2 fold change” value is -0.0476.
For the sequence RRIRRRPPRLPRPRPRPNLEPRP, the “shrunken log2 fold change” value was found to be 0.442.
As for RRIRGRPPRLPRPRPRPGVEPRP, the “shrunken log2 fold change” value came to 1.46.
The same measure for RRIRCRPPRLPRPRPRPGMSPRP: 0.0961; for RRIRCRPPRLPRPRPRPYVYPRP: -0.834.
The same measure for RRIRQRPPRLPRPRPRPVEEPRP: -0.0284; for RRIRARPPRLPRPRPRPHIEPRP: -0.0716.
As for RRIRVRPPRLPRPRPRPVARPRP, the “shrunken log2 fold change” value came out at 0.223.
The same measure for RRIRHRPPRLPRPRPRPGMTPRP: -0.039; for RRIRQRPPRLPRPRPRPAVPPRP: -0.0193; for RRIRSRPPRLPRPRPRPISRPRP: -0.416.
Turning to RRIRTRPPRLPRPRPRPKLIPRP, the “shrunken log2 fold change” value was -0.0765.
The same measure for RRIRFRPPRLPRPRPRPVYRPRP: -0.285.
The same measure for RRIRPRPPRLPRPRPRPNRVPRP: -0.275; for RRIRDRPPRLPRPRPRPYMMPRP: -0.297; for RRIRMRPPRLPRPRPRPNGTPRP: 0.0915.
The same measure for RRIRQRPPRLPRPRPRPPMMPRP: 0.154.
Turning to RRIRVRPPRLPRPRPRPPVWPRP, the “shrunken log2 fold change” value stood at 0.312.
As for RRIRYRPPRLPRPRPRPIKKPRP, the “shrunken log2 fold change” value was 0.017.
For the sequence RRIRRRPPRLPRPRPRPIVWPRP, the “shrunken log2 fold change” value is 0.0811.
For RRIRQRPPRLPRPRPRPPYKPRP, the “shrunken log2 fold change” value was -0.166.
The same measure for RRIRLRPPRLPRPRPRPAIIPRP: -0.197.
The same measure for RRIRWRPPRLPRPRPRPGAWPRP: 0.373; for RRIRNRPPRLPRPRPRPFLRPRP: -0.0221; for RRIRWRPPRLPRPRPRPPPDPRP: 0.906.
With RRIRQRPPRLPRPRPRPTYYPRP, the “shrunken log2 fold change” value is -0.524.
With RRIRPRPPRLPRPRPRPSMVPRP, the “shrunken log2 fold change” value was -0.376.
As to RRIRWRPPRLPRPRPRPTAFPRP, the “shrunken log2 fold change” value is 0.276.
With RRIRWRPPRLPRPRPRPDFMPRP, the “shrunken log2 fold change” value is -0.015.
As to RRIRSRPPRLPRPRPRPCSVPRP, the “shrunken log2 fold change” value is 0.044.
The same measure for RRIRSRPPRLPRPRPRPIMCPRP: -0.572; for RRIRFRPPRLPRPRPRPCCPPRP: -0.468.
With RRIRNRPPRLPRPRPRPWNCPRP, the “shrunken log2 fold change” value was -0.0415.
The same measure for RRIRRRPPRLPRPRPRPHSTPRP: 0.0894; for RRIRIRPPRLPRPRPRPVKVPRP: -0.00567; for RRIRDRPPRLPRPRPRPKNMPRP: -0.482.
The same measure for RRIRKRPPRLPRPRPRPHRRPRP: 3.99.
